In the RNAGym collection of RNA variant scans (doi:10.1073/pnas.2313332121):
Fewer inactive variants are shown than the library holds.

B1: TPR 5TU (parent)
chain: GGAUCUUCUCGAUCUAACAAAAAAGACAAAUCUGCCACAAAGCUUGAGAGCAUCUUCGGAUGCAGAGGCGGCAGCCUUCGGUGGCGCGAUAGCGCCAACGUUCUCAACUAUGACACGCAAAACGCGUGCUCCGUUGAAUGGAGUUUAUCAUG

Variants of: B1
Assay: polymerase ribozyme fitness, log enrichment relative to wild type (log ratio); higher = more active; in vitro selection for triplet polymerase activity
Outline: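 Streptavidin-bead capture of gel-excised extended constructs, followed by RT-PCR, closed a single triplicate in vitro selection round. That round began by annealing PCR-built, transcribed mutant libraries of each subunit of a heterodimeric triplet polymerase ribozyme with a biotinylated primer, the partner subunit and triplets, then incubating them frozen at −7 °C. After Illumina sequencing of inputs and outputs, genotypes needed ≥10 input reads and ≥1 read per output. Fitness is the base-2 logarithm of genotype enrichment over wild-type enrichment, using inverse-variance-weighted replicate averages.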

| Variant | polymerase ribozyme fitness (log ratio) |
| --- | --- |
| C32G U45C | -4.16 |
| U33C C54U C96U A107C | ≤ -4.2 |
| C35A C93G A98C C99U G141C | ≤ -4.2 |
| G34U A37U U55A G136U | ≤ -4.2 |
| C32U C93A | -4.11 |
| C32G G48C U53C U82G | ≤ -4.2 |
| U33G A73G | -0.513 |
| C32G U55A | -3.78 |
| G34U A40G C72U C96G | ≤ -4.2 |
| U33G A47C U56A A73G G83U C99A | -4.05 |
| C35A G58U | -2.81 |
| C32G C99U | ≤ -4.2 |
| C35A A39G G141U | ≤ -4.2 |
| C32U G59C A60C C63G C93A C99U A115G | ≤ -4.2 |
| C35A C95G | -4.1 |
| C32U G84A | -2.55 |
| U33G G42C G88U G124U C125G | -3.86 |
| C35A G65U G83A G140U | ≤ -4.2 |
| C32U A147C | -2.55 |
| U33C A40C G68U C95A U102C C132G | -3.48 |
| G34U C54U U78G G83A C108G | -4.13 |
| U33G A113C | -4.01 |
| U33A A41C C87A U130G A147G | ≤ -4.2 |
| C35A A49C U56C G71A C72U G92A A115C | -3.21 |

| Variant | polymerase ribozyme fitness (log ratio) |
| --- | --- |
| U33A G48A U78C G84A C105U | ≤ -4.2 |
| C32U C87U C103G | ≤ -4.2 |
| C32G U44A G65A C85G | ≤ -4.2 |
| U33G G50A C93G G128A | ≤ -4.2 |
| C32U C54U | -1.22 |
| C32U C69G C72U G88C U135G | ≤ -4.2 |
| G34C C87G U90G G92A U148A | ≤ -4.2 |
| G34A A49C C95U G140U G141A | ≤ -4.2 |
| C32G U146A | -3.88 |
| G34U A47U | -2.01 |
| G34A A91G | -3.57 |
| U33G U55A G70A G80C | ≤ -4.2 |
| U33A U53A U148C | ≤ -4.2 |
| G34A C36A A137G | ≤ -4.2 |
| C35A C79G U151A | ≤ -4.2 |
| C35A G74A U144G C149G | ≤ -4.2 |
| G34U C54U A66C A91U A121U | -4.11 |
| U33G A39C C54U | -3.84 |
| C32U U101A | -3.76 |
| C35A C43U A49U A64G C76U C96A U101G C149U | ≤ -4.2 |
| G34C U78C A91G U146A | ≤ -4.2 |
| G34A U77G C87A A91C C108U G133A | ≤ -4.2 |
| G34U G58A G59A C85U U101G A150G | ≤ -4.2 |
| U33A C95U | -4.12 |

| Variant | polymerase ribozyme fitness (log ratio) |
| --- | --- |
| G34A A106U A142U | ≤ -4.2 |
| G34A G50A G68U G71A C76A C85A C125U | ≤ -4.2 |
| C32G G59C C87G | ≤ -4.2 |
| G34A G74U G94A C116G | ≤ -4.2 |
| C32U | -1.22 |
| C35A A41C G59C C87U G100C C105G A121C | ≤ -4.2 |
| U33G A52C G92C U139C | ≤ -4.2 |
| G34U G83U A115G U145G | ≤ -4.2 |
| G34A C75U | -3.68 |
| U33A U102C A107U C125A | ≤ -4.2 |
| U33C A41U C57U G70C G83A A119C | ≤ -4.2 |
| G34A C85U U101G | -3.5 |
| C35A C85A | -3.65 |
| U33G C35A A66G C93U U104G C105U U134G | ≤ -4.2 |
| C32G C85G | ≤ -4.2 |
| C32G C85U | -3.86 |
| G34U A40G U55G U56A U101A U102G G126A | ≤ -4.2 |
| C32U A52G U77G A97C U144A | ≤ -4.2 |
| C32U A52U U90C G128C | ≤ -4.2 |
| C32U A37C G68A G80A C87U C95G | ≤ -4.2 |
| C32U U61A G94C C105U A107U A110U | ≤ -4.2 |
| U33G G62U C69U C103A G126C | ≤ -4.2 |
| U33C C57U G80U G83U C87U G128U | ≤ -4.2 |
| C32G C96U C116G G141U | ≤ -4.2 |

| Variant | polymerase ribozyme fitness (log ratio) |
| --- | --- |
| C32U A40C C85G C103A | ≤ -4.2 |
| C35A C79A G83A C99A | ≤ -4.2 |
| C35A G81U A97U A98U | -3.76 |
| G34A G58A U90A G94A U109G | ≤ -4.2 |
| U33G U56C G81C C95U | -3.74 |
| U33G A40G C54U U55G A98G A147U A150C | ≤ -4.2 |
| G34A G67U U77C A89C U101G C116G U151C | ≤ -4.2 |
| U33A C96A | ≤ -4.2 |
| G34A C43A G92U C118U | ≤ -4.2 |
| G34U C79G G92U C93G U109A G143C | ≤ -4.2 |
| U33G U53A G58A | -3.78 |
| C35A G67U G94U | ≤ -4.2 |
| C32U C38U C93G A122G G126C U145A | ≤ -4.2 |
| G34A C87U A89U G100A C103G A107U G124C U135G G140A G141C | ≤ -4.2 |
| U33C C95U | -2.01 |
| G34A G117U A137C A142U | ≤ -4.2 |
| C32G G42C U44A G88C C95U C103G | ≤ -4.2 |
| U33A G80A | -3.68 |
| C35A A37G U56A U61A | -3.7 |
| G34U A41G A47C C116U | ≤ -4.2 |
| C32G G48U G68A U134A U145C | ≤ -4.2 |
| C32U A60G A142G | -3.31 |
| C35A G42U G48A G68A A106C C116U A120U G141A | ≤ -4.2 |
| U33A C95U A142U G143U | -4.13 |

| Variant | polymerase ribozyme fitness (log ratio) |
| --- | --- |
| C32G C105U | ≤ -4.2 |
| C32U U55G U61C G84U G100C | ≤ -4.2 |
| G34A C69A A106G A147C | -3.75 |
| C32U U144A | -2.41 |
| C35A G65U G83C C85A G124A | ≤ -4.2 |
| C32U C54G G68U C75A | -3.88 |
| U33C C35G C36G G50C G94U | ≤ -4.2 |
| G34U G67A C76U C85A | ≤ -4.2 |
| U33G A60G | -2.79 |
| G34A U145A | -0.571 |
| U33G G34U | ≤ -4.2 |
| G34C G58A U77A U82G G86A C105A U127A G141C | ≤ -4.2 |
| U33G C95A | -3 |
| G34A U55A C69A C76U G80C C87G A89C A107C C116U | ≤ -4.2 |
| C32G C85G U90G C118A G133U G140C C149G | ≤ -4.2 |
| C32U G59U G81A | -3.13 |
| C32G G65C A73G C76U A106G | ≤ -4.2 |
| U33C G68A | -3.97 |
| C32G U55G C79U C96G | -4.01 |
| C35A A66G G70U C87G C96G A121U C149U | ≤ -4.2 |
| C35A A39C G83A C114A G117A C123G G140U | ≤ -4.2 |
| G34A A37C C43U C125G U130A C149A | ≤ -4.2 |
| C35A A47C G86U | ≤ -4.2 |
| U33A U61A | -3.64 |

| Variant | polymerase ribozyme fitness (log ratio) |
| --- | --- |
| U33G G50A A52C C76U C79U A107G U151A | ≤ -4.2 |
| U33G A40C C116A | -3.88 |
| U33A G86A A142G | ≤ -4.2 |
| C35A C76A C93U A113U U130G A147G | ≤ -4.2 |
| C35A A52C U77C A147C | ≤ -4.2 |
| U33A A49C C76U G80U C149G | ≤ -4.2 |
| C32U G88A U145G | ≤ -4.2 |
| G34C U139G | -3.21 |
| U33G G86U | -3.95 |
| U33A A37G C105U A106G | -4.07 |
| U33G A39U C116A U130G | -3.98 |
| U33C A39U G62A G86A A107U | ≤ -4.2 |
| U33A C43G G50U G84A A89U | ≤ -4.2 |
| U33C G143C | ≤ -4.2 |
| C32U A49C G92U C99A A115G A147C | ≤ -4.2 |
| U33C C63U C99U A142G | ≤ -4.2 |
| C32G C93U A119U A147U | ≤ -4.2 |
| C32U C118U G133C | -2.99 |
| C32U C85U | -1.97 |
| U33G C35G A60G A107G | ≤ -4.2 |
| U33G G42A G58C A91G G100A | ≤ -4.2 |
| C32G U61A G92U C131U | ≤ -4.2 |
| G34A U102G | ≤ -4.2 |
| C35A C54G C72A C75A G84C C114U G133U A138G | ≤ -4.2 |

| Variant | polymerase ribozyme fitness (log ratio) |
| --- | --- |
| U33A A91G | ≤ -4.2 |
| U33A A91C | ≤ -4.2 |
| U33C C69U | -0.0558 |
| U33C A60U A73U A122G | -2.54 |
| C35A C76U G81A C96U C103A | ≤ -4.2 |
| C32G G92U U127G G152U | -3.98 |
| C35A A39C C87U G92C A138C A147G | ≤ -4.2 |
| C32U G42A A60C A66G A73G C79A G84A C93U C96G A97U C103G | ≤ -4.2 |
| G34U A39U U53A A64U C116U U146G | ≤ -4.2 |
| G34U C51A G84C | ≤ -4.2 |
| C35A A39C A91U A121U | ≤ -4.2 |
| U33G G59A G94U | -3.39 |
| G34U U82G C96G A106G U145C | -3.75 |
| C32U U61A G74U C99G | ≤ -4.2 |
| G34A | -0.292 |
| G34U | -1.11 |
| G34C | -1.49 |
| U33A G50C G81A C93G C96U A98G C103G G152U | ≤ -4.2 |
| C35A C95G C105G A106G G141A | ≤ -4.2 |
| C32U A41U | -3.95 |
| U33G G50A C63G G94A C95G C116U | ≤ -4.2 |
| U33G U44A G46C A73G C76A C95U G133U | ≤ -4.2 |
| U33G G117A U134C | -2.88 |
